Test results published in patent US20160108118A1.

What was measured:
[1] = biological target: α-myc (anti-myc antibody coated as second antigen); experiment: phage ELISA
[2] = biological target: His (control coat of Table 2); experiment: phage ELISA

| Binder | OD490 [1] | OD490 [2] |
| --- | --- | --- |
| scFv-phage clone 10D (scFv) scFv: QVQLVQSGGGVVQPGRSLRLSCAASGFTFSSYGMHWVRQAPGKGLEWVAVISYDGSNKYYADSVKGRFTISRDNSKNTLYLQMNSLRSEDTAVYYCARDKRAAFDIWGQGKMVTVSSGLGGLGGGGSGGGGSGGSSGVGSSYELTQAPSLSVSPGQTANIICSGDNLRTKYVSWYQQKPGQSPLLVIYQDTRRPSGIPARFSGSNSGNTATLTISGTQTERESTYYCMTWDVDTTSMIFGGGTKLTVL | 3.02 |  |
| scFv-phage clone 12D (scFv, part only; not given: scFv linker and domain order, part only) scFv, part: QVQLVQSGGGVVQPGRSLRLSCVASAFTFSRYGMHWVRQAPGKGLEWVALISYDGSSEYYADSVKGRFNISRDNSKNTVYLQMNSLRAEDTAVYYCVKDGLAAKLGHWGQGTLVTVSSQAPSLSVSPGQTANIICSGDNLRTKYVSWYQQKPGQSPLLVIYQDTRRPSGIPARFSGSNSGNTATLTISGTQTERESTYYCMTWDVDTTSMIFGGGTKLTVLG | 0.888 | 0.049 |
| scFv-phage clone 9E (scFv, part only; not given: scFv linker and domain order, part only) scFv, part: QVQLVESGGGVVQPGRSLRLSCAASGFTFSSYGMHWVRQAPGKGLEWVAVISYDGNNKYYVDSVKGRFTISRDNSKNTLYLQMNSLRSEDTAVYYCARDSGSYLDWYFDLWGRGTLVTVSSQPPSVSVAPGKTARIACGGGNIGDKSVHWYQQKPGQAPVLVIFYDSDRPSGIPKRLSGSNSGNTATLTISRVEAGDEGDYYCQVWDSSSDRPVFGGGTKLTVLG | 2.01 | 0.043 |
